{"source": "paper PMC9482650", "about": "“Quantitative fragmentomics allow affinity mapping of interactomes” (Nature Communications, 2022)", "binders": {"B1": {"name": "PPFIA1, Q13136 (peptide)", "chain": "DSATVRTYSC"}, "B2": {"name": "CLDN19, Q8N6F1 (peptide)", "chain": "PASAKGPLGV"}}}
{"molecular_target": "T1, PTPN13_1, Q12923", "T1 sequence (Q12923 1088-1188, limits assumed, looked up)": "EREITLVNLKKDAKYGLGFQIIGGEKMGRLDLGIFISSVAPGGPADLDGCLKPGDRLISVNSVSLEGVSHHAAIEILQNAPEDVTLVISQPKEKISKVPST", "test": "holdup assay", "parameters": "key: below the threshold = too weak to quantify, mostly under pKd 3.1 to 4", "details": "plain residues with an end cap or a label only (N-terminal biotin on a linker: ado-ado)"}
{"binder": "B1", "pKd": "below the threshold"}
{"binder": "B2", "pKd": "below the threshold"}
{"molecular_target": "DLG1_3, Q12959", "sequence (Q12959 457-571)": "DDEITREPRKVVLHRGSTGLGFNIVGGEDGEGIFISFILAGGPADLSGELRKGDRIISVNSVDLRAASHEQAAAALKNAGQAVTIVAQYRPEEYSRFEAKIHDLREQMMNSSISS", "test": "holdup assay", "parameters": "key: below the threshold = too weak to quantify, mostly under pKd 3.1 to 4", "details": "plain residues with an end cap or a label only (N-terminal biotin on a linker: ado-ado)"}
{"binder": "B1", "pKd": "below the threshold"}
{"binder": "B2", "pKd": "below the threshold"}
{"molecular_target": "LIMK2, P53671", "sequence (P53671 143-248)": "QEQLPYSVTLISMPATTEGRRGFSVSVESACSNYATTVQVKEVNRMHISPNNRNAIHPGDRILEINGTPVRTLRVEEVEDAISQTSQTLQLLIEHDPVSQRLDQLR", "test": "holdup assay", "parameters": "key: below the threshold = too weak to quantify, mostly under pKd 3.1 to 4", "details": "plain residues with an end cap or a label only (N-terminal biotin on a linker: ado-ado)"}
{"binder": "B1", "pKd": "below the threshold"}
{"binder": "B2", "pKd": "below the threshold"}
{"molecular_target": "T2, NHERF3_3, Q5T2W1", "T2 sequence (Q5T2W1 238-333, limits assumed, looked up)": "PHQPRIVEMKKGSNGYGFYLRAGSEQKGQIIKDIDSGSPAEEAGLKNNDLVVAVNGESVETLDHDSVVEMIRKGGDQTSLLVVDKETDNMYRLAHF", "test": "holdup assay", "parameters": "key: below the threshold = too weak to quantify, mostly under pKd 3.1 to 4", "details": "plain residues with an end cap or a label only (N-terminal biotin on a linker: ado-ado)"}
{"binder": "B1", "pKd": "below the threshold"}
{"binder": "B2", "pKd": "below the threshold"}
{"molecular_target": "T3, DLG3_2, Q92796", "T3 sequence (Q92796 221-321, limits assumed, looked up)": "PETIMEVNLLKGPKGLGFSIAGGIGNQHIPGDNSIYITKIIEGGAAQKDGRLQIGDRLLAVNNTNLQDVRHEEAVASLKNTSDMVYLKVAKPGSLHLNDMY", "test": "holdup assay", "parameters": "key: below the threshold = too weak to quantify, mostly under pKd 3.1 to 4", "details": "plain residues with an end cap or a label only (N-terminal biotin on a linker: ado-ado)"}
{"binder": "B1", "pKd": 4.08}
{"binder": "B2", "pKd": "below the threshold"}
{"molecular_target": "T4, RADIL, Q96JH8", "T4 sequence (Q96JH8 971-1071, limits assumed, looked up)": "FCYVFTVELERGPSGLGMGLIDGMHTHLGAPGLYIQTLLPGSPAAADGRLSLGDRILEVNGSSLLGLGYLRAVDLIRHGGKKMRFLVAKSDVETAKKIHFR", "test": "holdup assay", "parameters": "key: below the threshold = too weak to quantify, mostly under pKd 3.1 to 4", "details": "plain residues with an end cap or a label only (N-terminal biotin on a linker: ado-ado)"}
{"binder": "B1", "pKd": "below the threshold"}
{"binder": "B2", "pKd": "below the threshold"}
{"molecular_target": "T5, RHPN1, Q8TCX5", "T5 sequence (Q8TCX5 508-602, limits assumed, looked up)": "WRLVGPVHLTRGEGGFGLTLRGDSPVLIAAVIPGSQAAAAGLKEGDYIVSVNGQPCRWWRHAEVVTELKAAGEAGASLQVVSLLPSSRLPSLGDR", "test": "holdup assay", "parameters": "key: below the threshold = too weak to quantify, mostly under pKd 3.1 to 4", "details": "plain residues with an end cap or a label only (N-terminal biotin on a linker: ado-ado)"}
{"binder": "B1", "pKd": "below the threshold"}
{"binder": "B2", "pKd": "below the threshold"}
{"molecular_target": "Inadl_3, Q8NI35", "sequence (Q8NI35 359-469)": "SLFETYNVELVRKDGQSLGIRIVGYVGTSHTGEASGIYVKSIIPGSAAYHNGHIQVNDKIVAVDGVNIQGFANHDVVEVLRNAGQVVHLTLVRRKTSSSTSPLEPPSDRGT", "test": "holdup assay", "parameters": "key: below the threshold = too weak to quantify, mostly under pKd 3.1 to 4", "details": "plain residues with an end cap or a label only (N-terminal biotin on a linker: ado-ado)"}
{"binder": "B1", "pKd": "below the threshold"}
{"binder": "B2", "pKd": "below the threshold"}
{"molecular_target": "Inadl_9, Q8NI35", "sequence (Q8NI35 1530-1615)": "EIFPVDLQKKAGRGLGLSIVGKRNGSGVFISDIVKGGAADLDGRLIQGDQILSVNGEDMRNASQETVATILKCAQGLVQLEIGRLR", "test": "holdup assay", "parameters": "key: below the threshold = too weak to quantify, mostly under pKd 3.1 to 4", "details": "plain residues with an end cap or a label only (N-terminal biotin on a linker: ado-ado)"}
{"binder": "B1", "pKd": "below the threshold"}
{"binder": "B2", "pKd": "below the threshold"}
{"molecular_target": "MAGI1_2, Q96QZ7", "sequence (Q96QZ7 456-580)": "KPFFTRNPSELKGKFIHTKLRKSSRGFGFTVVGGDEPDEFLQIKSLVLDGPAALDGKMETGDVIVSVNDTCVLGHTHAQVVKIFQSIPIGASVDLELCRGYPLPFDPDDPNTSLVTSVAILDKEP", "test": "holdup assay", "parameters": "key: below the threshold = too weak to quantify, mostly under pKd 3.1 to 4", "details": "plain residues with an end cap or a label only (N-terminal biotin on a linker: ado-ado)"}
{"binder": "B1", "pKd": "below the threshold"}
{"binder": "B2", "pKd": "below the threshold"}
{"molecular_target": "AHNAK1, Q09666", "sequence (Q09666 4-100)": "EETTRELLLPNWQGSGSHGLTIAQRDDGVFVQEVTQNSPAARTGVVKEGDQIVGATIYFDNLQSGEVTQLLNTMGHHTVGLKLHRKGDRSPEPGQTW", "test": "holdup assay", "parameters": "key: below the threshold = too weak to quantify, mostly under pKd 3.1 to 4", "details": "plain residues with an end cap or a label only (N-terminal biotin on a linker: ado-ado)"}
{"binder": "B1", "pKd": "below the threshold"}
{"binder": "B2", "pKd": "below the threshold"}
{"molecular_target": "LNX1_2, Q8TBB1", "sequence (Q8TBB1 371-470)": "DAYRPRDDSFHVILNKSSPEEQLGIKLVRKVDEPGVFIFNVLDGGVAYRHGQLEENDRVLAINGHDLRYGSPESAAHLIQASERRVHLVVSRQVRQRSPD", "test": "holdup assay", "parameters": "key: below the threshold = too weak to quantify, mostly under pKd 3.1 to 4", "details": "plain residues with an end cap or a label only (N-terminal biotin on a linker: ado-ado)"}
{"binder": "B1", "pKd": 4.83}
{"binder": "B2", "pKd": "below the threshold"}
{"molecular_target": "MAGI2_4, Q86UL8", "sequence (Q86UL8 772-865)": "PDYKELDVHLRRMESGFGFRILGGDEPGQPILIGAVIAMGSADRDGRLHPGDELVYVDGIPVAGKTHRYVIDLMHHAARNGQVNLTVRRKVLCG", "test": "holdup assay", "parameters": "key: below the threshold = too weak to quantify, mostly under pKd 3.1 to 4", "details": "plain residues with an end cap or a label only (N-terminal biotin on a linker: ado-ado)"}
{"binder": "B1", "pKd": "below the threshold"}
{"binder": "B2", "pKd": "below the threshold"}
{"molecular_target": "NHERF4_1, Q86UT5-2", "sequence (Q86UT5 other isoform, or with tags, fused parts or gaps)": "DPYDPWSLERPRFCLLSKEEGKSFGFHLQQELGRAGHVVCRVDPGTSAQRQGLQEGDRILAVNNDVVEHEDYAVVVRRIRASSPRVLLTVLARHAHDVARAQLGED", "test": "holdup assay", "parameters": "key: below the threshold = too weak to quantify, mostly under pKd 3.1 to 4", "details": "plain residues with an end cap or a label only (N-terminal biotin on a linker: ado-ado)"}
{"binder": "B1", "pKd": 3.98}
{"binder": "B2", "pKd": 3.49}
{"molecular_target": "T6, LIN7A, O14910", "T6 sequence (O14910 103-200, limits assumed, looked up)": "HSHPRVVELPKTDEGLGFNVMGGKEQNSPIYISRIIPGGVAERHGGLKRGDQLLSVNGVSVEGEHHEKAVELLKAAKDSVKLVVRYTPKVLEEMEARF", "test": "holdup assay", "parameters": "key: below the threshold = too weak to quantify, mostly under pKd 3.1 to 4", "details": "plain residues with an end cap or a label only (N-terminal biotin on a linker: ado-ado)"}
{"binder": "B1", "pKd": "below the threshold"}
{"binder": "B2", "pKd": "below the threshold"}
{"molecular_target": "PTPN3, P26045", "sequence (P26045 505-587)": "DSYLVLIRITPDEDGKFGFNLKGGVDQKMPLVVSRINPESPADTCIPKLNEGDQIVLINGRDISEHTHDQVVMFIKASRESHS", "test": "holdup assay", "parameters": "key: below the threshold = too weak to quantify, mostly under pKd 3.1 to 4", "details": "plain residues with an end cap or a label only (N-terminal biotin on a linker: ado-ado)"}
{"binder": "B1", "pKd": 3.68}
{"binder": "B2", "pKd": "below the threshold"}
{"molecular_target": "T7, DLG3_1, Q92796", "T7 sequence (Q92796 125-227, limits assumed, looked up)": "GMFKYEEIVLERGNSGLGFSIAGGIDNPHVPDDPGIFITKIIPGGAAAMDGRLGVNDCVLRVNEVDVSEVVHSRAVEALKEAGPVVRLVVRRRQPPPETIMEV", "test": "holdup assay", "parameters": "key: below the threshold = too weak to quantify, mostly under pKd 3.1 to 4", "details": "plain residues with an end cap or a label only (N-terminal biotin on a linker: ado-ado)"}
{"binder": "B1", "pKd": "below the threshold"}
{"binder": "B2", "pKd": "below the threshold"}
{"molecular_target": "T8, SNTG1, Q9NSN8", "T8 sequence (Q9NSN8 52-150, limits assumed, looked up)": "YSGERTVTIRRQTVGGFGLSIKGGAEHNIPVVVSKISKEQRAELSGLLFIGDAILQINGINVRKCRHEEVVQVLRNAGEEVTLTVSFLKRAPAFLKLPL", "test": "holdup assay", "parameters": "key: below the threshold = too weak to quantify, mostly under pKd 3.1 to 4", "details": "plain residues with an end cap or a label only (N-terminal biotin on a linker: ado-ado)"}
{"binder": "B1", "pKd": "below the threshold"}
{"binder": "B2", "pKd": "below the threshold"}
{"molecular_target": "T9, MPDZ_5, O75970", "T9 sequence (O75970 695-796, limits assumed, looked up)": "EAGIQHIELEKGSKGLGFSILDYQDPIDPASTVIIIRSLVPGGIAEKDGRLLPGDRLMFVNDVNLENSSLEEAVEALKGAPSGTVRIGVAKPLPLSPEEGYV", "test": "holdup assay", "parameters": "key: below the threshold = too weak to quantify, mostly under pKd 3.1 to 4", "details": "plain residues with an end cap or a label only (N-terminal biotin on a linker: ado-ado)"}
{"binder": "B1", "pKd": "below the threshold"}
{"binder": "B2", "pKd": "below the threshold"}
{"molecular_target": "T10, SNTG2, Q9NY99", "T10 sequence (Q9NY99 68-166, limits assumed, looked up)": "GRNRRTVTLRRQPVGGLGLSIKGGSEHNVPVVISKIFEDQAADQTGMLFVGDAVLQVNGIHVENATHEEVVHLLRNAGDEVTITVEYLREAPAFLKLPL", "test": "holdup assay", "parameters": "key: below the threshold = too weak to quantify, mostly under pKd 3.1 to 4", "details": "plain residues with an end cap or a label only (N-terminal biotin on a linker: ado-ado)"}
{"binder": "B1", "pKd": "below the threshold"}
{"binder": "B2", "pKd": "below the threshold"}
{"molecular_target": "T11, DFNB31_1, Q9P202", "T11 sequence (Q9P202 135-233, limits assumed, looked up)": "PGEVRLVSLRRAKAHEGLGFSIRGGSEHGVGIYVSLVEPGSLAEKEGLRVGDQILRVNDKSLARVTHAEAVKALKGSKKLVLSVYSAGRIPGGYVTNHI", "test": "holdup assay", "parameters": "key: below the threshold = too weak to quantify, mostly under pKd 3.1 to 4", "details": "plain residues with an end cap or a label only (N-terminal biotin on a linker: ado-ado)"}
{"binder": "B1", "pKd": 3.47}
{"binder": "B2", "pKd": "below the threshold"}
{"molecular_target": "Inadl_10, Q8NI35", "sequence (Q8NI35 1673-1763)": "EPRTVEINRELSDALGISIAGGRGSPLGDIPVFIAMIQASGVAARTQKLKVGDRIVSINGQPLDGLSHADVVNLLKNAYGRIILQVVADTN", "test": "holdup assay", "parameters": "key: below the threshold = too weak to quantify, mostly under pKd 3.1 to 4", "details": "plain residues with an end cap or a label only (N-terminal biotin on a linker: ado-ado)"}
{"binder": "B1", "pKd": "below the threshold"}
{"binder": "B2", "pKd": "below the threshold"}
{"molecular_target": "GORASP2, Q9H8Y8", "test": "holdup assay", "parameters": "key: below the threshold = too weak to quantify, mostly under pKd 3.1 to 4", "details": "plain residues with an end cap or a label only (N-terminal biotin on a linker: ado-ado)"}
{"binder": "B1", "pKd": 3.62}
{"binder": "B2", "pKd": "below the threshold"}
{"molecular_target": "SCRIB_2, Q14160", "sequence (Q14160 857-960)": "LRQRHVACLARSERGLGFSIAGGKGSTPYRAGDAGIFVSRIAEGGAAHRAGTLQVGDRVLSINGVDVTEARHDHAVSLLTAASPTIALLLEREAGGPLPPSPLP", "test": "holdup assay", "parameters": "key: below the threshold = too weak to quantify, mostly under pKd 3.1 to 4", "details": "plain residues with an end cap or a label only (N-terminal biotin on a linker: ado-ado)"}
{"binder": "B1", "pKd": "below the threshold"}
{"binder": "B2", "pKd": "below the threshold"}
{"molecular_target": "TJP1_3, Q07157", "sequence (Q07157 416-512)": "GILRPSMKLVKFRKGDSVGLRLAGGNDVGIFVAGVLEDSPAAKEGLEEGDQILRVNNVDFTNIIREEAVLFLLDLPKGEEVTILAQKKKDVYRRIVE", "test": "holdup assay", "parameters": "key: below the threshold = too weak to quantify, mostly under pKd 3.1 to 4", "details": "plain residues with an end cap or a label only (N-terminal biotin on a linker: ado-ado)"}
{"binder": "B1", "pKd": "below the threshold"}
{"binder": "B2", "pKd": "below the threshold"}
{"molecular_target": "FRMPD2_2, Q68DX3", "sequence (Q68DX3 944-1038)": "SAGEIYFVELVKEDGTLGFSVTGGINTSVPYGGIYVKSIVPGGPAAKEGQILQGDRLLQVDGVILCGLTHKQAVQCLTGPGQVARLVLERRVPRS", "test": "holdup assay", "parameters": "key: below the threshold = too weak to quantify, mostly under pKd 3.1 to 4", "details": "plain residues with an end cap or a label only (N-terminal biotin on a linker: ado-ado)"}
{"binder": "B1", "pKd": "below the threshold"}
{"binder": "B2", "pKd": "below the threshold"}
{"molecular_target": "FRMPD2_3, Q68DX3", "sequence (Q68DX3 1073-1166)": "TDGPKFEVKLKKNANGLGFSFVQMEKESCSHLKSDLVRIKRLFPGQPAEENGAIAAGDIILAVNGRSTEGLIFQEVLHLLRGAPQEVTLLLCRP", "test": "holdup assay", "parameters": "key: below the threshold = too weak to quantify, mostly under pKd 3.1 to 4", "details": "plain residues with an end cap or a label only (N-terminal biotin on a linker: ado-ado)"}
{"binder": "B1", "pKd": "below the threshold"}
{"binder": "B2", "pKd": "below the threshold"}
